In CN111153994A (WUHAN ABEX BIOTECHNOLOGY CO LTD, dated 2020):

Molecular target: T1, 人TNFα蛋白 (人肿瘤坏死因子) (human, UniProt P01375 77-233)
T1 construct: also called human TNFα
Test: ELISA: human TNFα coated on the plate, serially diluted FC9 as primary antibody, HRP goat anti-human IgG-Fc as secondary

T1 sequence (P01375 77-233 limits assumed): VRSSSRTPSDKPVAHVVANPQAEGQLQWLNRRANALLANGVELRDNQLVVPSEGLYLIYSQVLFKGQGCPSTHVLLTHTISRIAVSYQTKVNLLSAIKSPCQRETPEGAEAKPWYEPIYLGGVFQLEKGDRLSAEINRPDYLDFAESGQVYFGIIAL

- EC50: ~0.4 nM
B1: FC9抗体 (针对人肿瘤坏死因子的人源单克隆抗体) (antibody, human IgG1, kappa, V domains shown)
VH: QLVQSGAEVKKPGASVKVSCKASGYTFTSYYMHWVRQAPGQGLEWMGIINPSGGSTSYAQKFQGRVTMTRDTSTSTVYMELSSLRSEDTAVYYCASFDYWGQGTLVTVSS
VL: EIVLTQSPGTLSLSPGERATLSCRTSQSVSSSYLAWYQQKPGQAPRLLIYGASSRATGIPDRFSGSGSGTDFTLTISRLEPEDFAVYFCQQFGTSSITFGQGTRLEIKR
notes: Point mutant of FC0 in an aggregation-prone region of the heavy chain; Expressed in 293F cells from pVitro2-neo-mcs, purified on Protein A and detected with anti-human IgG-Fc; also called FC9 antibody
